Results: US20220135701A1 (Genentech, published 2022)

Molecular target: T1, human MerTK (human, UniProt Q12866 26-499)
T1 construct: also called HuMER
T1 sequence: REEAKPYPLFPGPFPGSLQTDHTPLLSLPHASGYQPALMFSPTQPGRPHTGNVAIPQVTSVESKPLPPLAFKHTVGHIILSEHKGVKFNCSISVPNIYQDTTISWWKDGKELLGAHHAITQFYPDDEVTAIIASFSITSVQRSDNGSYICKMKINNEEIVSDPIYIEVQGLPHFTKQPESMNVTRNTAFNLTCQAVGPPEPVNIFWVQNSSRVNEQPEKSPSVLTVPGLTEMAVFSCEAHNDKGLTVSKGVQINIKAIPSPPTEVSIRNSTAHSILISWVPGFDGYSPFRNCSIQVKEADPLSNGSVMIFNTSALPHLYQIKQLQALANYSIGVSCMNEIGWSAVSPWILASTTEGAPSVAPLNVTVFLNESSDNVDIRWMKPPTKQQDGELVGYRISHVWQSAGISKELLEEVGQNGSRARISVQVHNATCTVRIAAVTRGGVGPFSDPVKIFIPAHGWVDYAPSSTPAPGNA
Assay: SPR BIAcore T200, Ab captured, 37C
Experimental: Each humanized mutation variant was subject to BIAcore analysis to determine the important rabbit residues for binding and stability. Binding affinity determinations were obtained using Surface Plasmon Resonance (SRP) measurements from a BIAcore™-T200 instrument. Briefly, each humanized mutation variant antibody was captured to achieve approximately 100 RU (Response Units). Then, 3-fold serial dilutions of human MerTK (0.4 nM to 100 nM) diluted in HBS-EP buffer (0.01M HEPES pH 7.4, 0.15M NaCl, 3 mM EDTA and 0.05% v/v surfactant P20) was injected into the BIAcore™-T200 instrument at 37° C. with a flow rate of 30 μl/min. Association rates (kₒₙ) and dissociation rates (koff) were calculated using a simple one-to-one Langmuir binding model (BIAcore T200 evaluation software version 2.0). The equilibrium dissociation constant (KD) was calculated as the ratio koff/kₒₙ.

B1: h10F7.V1 LC A2I (antibody, human IgG1, name in Kabat numbering, V domains shown)
VH: EQQLVESGGGLVQPGGSLRLSCAVSGFSLSGYAMSWVRQAPGKGLEYIGVISSSGSSYYPSWAKGRFTISKDSSKNTVYLQMGSLRAEDMAVYFCARVQFYVGYAVYGYGIIDRLDLWGQGTLVTVSS
VL: DIVLTQSPDSLAVSLGERATINCQSSKSVYNNNWLSWYQQKPGQPPKLLIYRASTLESGVPDRFSGSGSGTDFTLTISSLQAEDVAVYFCAGGYSSSSSANAFGGGTKVEIK
notes: Framework variant of h10F7.v1 (human IgG1)
Kd: 5.9 nM

B2: h10F7.V1 LC L4M (antibody, human IgG1, name in Kabat numbering, V domains shown)
VH: EQQLVESGGGLVQPGGSLRLSCAVSGFSLSGYAMSWVRQAPGKGLEYIGVISSSGSSYYPSWAKGRFTISKDSSKNTVYLQMGSLRAEDMAVYFCARVQFYVGYAVYGYGIIDRLDLWGQGTLVTVSS
VL: DAVMTQSPDSLAVSLGERATINCQSSKSVYNNNWLSWYQQKPGQPPKLLIYRASTLESGVPDRFSGSGSGTDFTLTISSLQAEDVAVYFCAGGYSSSSSANAFGGGTKVEIK
notes: as for B1
Kd: 6.2 nM

B3: h10F7.V1 LC F87Y (antibody, name in Kabat numbering, V domains shown)
VH: EQQLVESGGGLVQPGGSLRLSCAVSGFSLSGYAMSWVRQAPGKGLEYIGVISSSGSSYYPSWAKGRFTISKDSSKNTVYLQMGSLRAEDMAVYFCARVQFYVGYAVYGYGIIDRLDLWGQGTLVTVSS
VL: DAVLTQSPDSLAVSLGERATINCQSSKSVYNNNWLSWYQQKPGQPPKLLIYRASTLESGVPDRFSGSGSGTDFTLTISSLQAEDVAVYYCAGGYSSSSSANAFGGGTKVEIK
notes: as for B1
Kd: 8.8 nM

B4: h10C3.V1 HC F91Y (antibody, name in Kabat numbering, V domains shown)
VH: EQQLVESGGGLVQPGGSLRLSCAASGFSLSGYTMGWVRQAPGKGLEYIGVISSGGTTYYTNWAKGRFTISKDSSKNTVYLQMGSLRAEDMAVYYCARVAFTAYGGGGFPTLHRLDLWGQGTLVTVSS
VL: DQVLTQSPDSLAVSLGERATINCQSSESVYNNDYLAWYQQKPGQPPKLLIYSASTLASGVPDRFSGSGSGTDFTLTISSLQAEDVAVYYCAGGYLGNNVFGGGTKVEIK
notes: Framework variant of h10C3.v1 (human IgG1)
Kd: 14.9 nM

B5: h10C3.V1 LC L4M (antibody, human IgG1, name in Kabat numbering, V domains shown)
VH: EQQLVESGGGLVQPGGSLRLSCAASGFSLSGYTMGWVRQAPGKGLEYIGVISSGGTTYYTNWAKGRFTISKDSSKNTVYLQMGSLRAEDMAVYFCARVAFTAYGGGGFPTLHRLDLWGQGTLVTVSS
VL: DQVMTQSPDSLAVSLGERATINCQSSESVYNNDYLAWYQQKPGQPPKLLIYSASTLASGVPDRFSGSGSGTDFTLTISSLQAEDVAVYYCAGGYLGNNVFGGGTKVEIK
notes: as for B4
Kd: 12.3 nM

B6: h10C3.V1 HC S73N (antibody, human IgG1, name in Kabat numbering, V domains shown)
VH: EQQLVESGGGLVQPGGSLRLSCAASGFSLSGYTMGWVRQAPGKGLEYIGVISSGGTTYYTNWAKGRFTISKDNSKNTVYLQMGSLRAEDMAVYFCARVAFTAYGGGGFPTLHRLDLWGQGTLVTVSS
VL: DQVLTQSPDSLAVSLGERATINCQSSESVYNNDYLAWYQQKPGQPPKLLIYSASTLASGVPDRFSGSGSGTDFTLTISSLQAEDVAVYYCAGGYLGNNVFGGGTKVEIK
notes: as for B4
Kd: 15 nM

B7: h10C3.V1 HC Q2V (antibody, human IgG1, name in Kabat numbering, V domains shown)
VH: EVQLVESGGGLVQPGGSLRLSCAASGFSLSGYTMGWVRQAPGKGLEYIGVISSGGTTYYTNWAKGRFTISKDSSKNTVYLQMGSLRAEDMAVYFCARVAFTAYGGGGFPTLHRLDLWGQGTLVTVSS
VL: DQVLTQSPDSLAVSLGERATINCQSSESVYNNDYLAWYQQKPGQPPKLLIYSASTLASGVPDRFSGSGSGTDFTLTISSLQAEDVAVYYCAGGYLGNNVFGGGTKVEIK
notes: as for B4
Kd: 12.5 nM

B8: h10C3.V1 HC I48V (antibody, human IgG1, name in Kabat numbering, V domains shown)
VH: EQQLVESGGGLVQPGGSLRLSCAASGFSLSGYTMGWVRQAPGKGLEYVGVISSGGTTYYTNWAKGRFTISKDSSKNTVYLQMGSLRAEDMAVYFCARVAFTAYGGGGFPTLHRLDLWGQGTLVTVSS
VL: DQVLTQSPDSLAVSLGERATINCQSSESVYNNDYLAWYQQKPGQPPKLLIYSASTLASGVPDRFSGSGSGTDFTLTISSLQAEDVAVYYCAGGYLGNNVFGGGTKVEIK
notes: as for B4
Kd: 17.1 nM

B9: h10C3.V1 HC V78L (antibody, human IgG1, name in Kabat numbering, V domains shown)
VH: EQQLVESGGGLVQPGGSLRLSCAASGFSLSGYTMGWVRQAPGKGLEYIGVISSGGTTYYTNWAKGRFTISKDSSKNTLYLQMGSLRAEDMAVYFCARVAFTAYGGGGFPTLHRLDLWGQGTLVTVSS
VL: DQVLTQSPDSLAVSLGERATINCQSSESVYNNDYLAWYQQKPGQPPKLLIYSASTLASGVPDRFSGSGSGTDFTLTISSLQAEDVAVYYCAGGYLGNNVFGGGTKVEIK
notes: as for B4
Kd: 7.4 nM

B10: h10C3.V1 LC Q2I (antibody, human IgG1, name in Kabat numbering, V domains shown)
VH: EQQLVESGGGLVQPGGSLRLSCAASGFSLSGYTMGWVRQAPGKGLEYIGVISSGGTTYYTNWAKGRFTISKDSSKNTVYLQMGSLRAEDMAVYFCARVAFTAYGGGGFPTLHRLDLWGQGTLVTVSS
VL: DIVLTQSPDSLAVSLGERATINCQSSESVYNNDYLAWYQQKPGQPPKLLIYSASTLASGVPDRFSGSGSGTDFTLTISSLQAEDVAVYYCAGGYLGNNVFGGGTKVEIK
notes: as for B4
Kd: 17.1 nM

B11: h10C3.V1 HC K71R (antibody, human IgG1, name in Kabat numbering, V domains shown)
VH: EQQLVESGGGLVQPGGSLRLSCAASGFSLSGYTMGWVRQAPGKGLEYIGVISSGGTTYYTNWAKGRFTISRDSSKNTVYLQMGSLRAEDMAVYFCARVAFTAYGGGGFPTLHRLDLWGQGTLVTVSS
VL: DQVLTQSPDSLAVSLGERATINCQSSESVYNNDYLAWYQQKPGQPPKLLIYSASTLASGVPDRFSGSGSGTDFTLTISSLQAEDVAVYYCAGGYLGNNVFGGGTKVEIK
notes: as for B4
Kd: 20 nM

B12: h10C3.V1 HC G49S (antibody, human IgG1, name in Kabat numbering, V domains shown)
VH: EQQLVESGGGLVQPGGSLRLSCAASGFSLSGYTMGWVRQAPGKGLEYISVISSGGTTYYTNWAKGRFTISKDSSKNTVYLQMGSLRAEDMAVYFCARVAFTAYGGGGFPTLHRLDLWGQGTLVTVSS
VL: DQVLTQSPDSLAVSLGERATINCQSSESVYNNDYLAWYQQKPGQPPKLLIYSASTLASGVPDRFSGSGSGTDFTLTISSLQAEDVAVYYCAGGYLGNNVFGGGTKVEIK
notes: as for B4
Kd: 30.2 nM

B13: h9E3.FN.V1 HC F91Y (antibody, name in Kabat numbering, V domains shown)
VH: EQQLVESGGGLIQPGGSLRLSCAVSGFSLSSNAMSWVRQAPGKGLEWIGIISSSGSTYSASWAKGRFTISKDSSKNTMYLQMNSLRAEDTAVYYCARVGFFVGYGAYDYGIIHRLDLWGQGTLVTVSS
VL: DAQLTQSPSTLSASVGDRVTITCQSSKSIYNNNWLSWYQQKPGKPPKLLIYDASDLASGVPSRFSGSGSGTEFTLTISSLQPDDFATYYCAGGYSGDSDYAFGGGTKVEIK
notes: Framework variant of h9E3.FN.v1 (human IgG1)
Kd: 11.5 nM

B14: h9E3.FN.V1 HC S73N (antibody, human IgG1, name in Kabat numbering, V domains shown)
VH: EQQLVESGGGLIQPGGSLRLSCAVSGFSLSSNAMSWVRQAPGKGLEWIGIISSSGSTYSASWAKGRFTISKDNSKNTMYLQMNSLRAEDTAVYFCARVGFFVGYGAYDYGIIHRLDLWGQGTLVTVSS
VL: DAQLTQSPSTLSASVGDRVTITCQSSKSIYNNNWLSWYQQKPGKPPKLLIYDASDLASGVPSRFSGSGSGTEFTLTISSLQPDDFATYYCAGGYSGDSDYAFGGGTKVEIK
notes: as for B13
Kd: 12.3 nM

B15: h9E3.FN.V1 HC Q2V (antibody, human IgG1, name in Kabat numbering, V domains shown)
VH: EVQLVESGGGLIQPGGSLRLSCAVSGFSLSSNAMSWVRQAPGKGLEWIGIISSSGSTYSASWAKGRFTISKDSSKNTMYLQMNSLRAEDTAVYFCARVGFFVGYGAYDYGIIHRLDLWGQGTLVTVSS
VL: DAQLTQSPSTLSASVGDRVTITCQSSKSIYNNNWLSWYQQKPGKPPKLLIYDASDLASGVPSRFSGSGSGTEFTLTISSLQPDDFATYYCAGGYSGDSDYAFGGGTKVEIK
notes: as for B13
Kd: 10.2 nM

B16: h9E3.FN.V1 HC K71R (antibody, human IgG1, name in Kabat numbering, V domains shown)
VH: EQQLVESGGGLIQPGGSLRLSCAVSGFSLSSNAMSWVRQAPGKGLEWIGIISSSGSTYSASWAKGRFTISRDSSKNTMYLQMNSLRAEDTAVYFCARVGFFVGYGAYDYGIIHRLDLWGQGTLVTVSS
VL: DAQLTQSPSTLSASVGDRVTITCQSSKSIYNNNWLSWYQQKPGKPPKLLIYDASDLASGVPSRFSGSGSGTEFTLTISSLQPDDFATYYCAGGYSGDSDYAFGGGTKVEIK
notes: as for B13
Kd: 41.3 nM

B17: h9E3.FN.V1 HC M78L (antibody, human IgG1, name in Kabat numbering, V domains shown)
VH: EQQLVESGGGLIQPGGSLRLSCAVSGFSLSSNAMSWVRQAPGKGLEWIGIISSSGSTYSASWAKGRFTISKDSSKNTLYLQMNSLRAEDTAVYFCARVGFFVGYGAYDYGIIHRLDLWGQGTLVTVSS
VL: DAQLTQSPSTLSASVGDRVTITCQSSKSIYNNNWLSWYQQKPGKPPKLLIYDASDLASGVPSRFSGSGSGTEFTLTISSLQPDDFATYYCAGGYSGDSDYAFGGGTKVEIK
notes: as for B13
Kd: 12.5 nM

B18: h9E3.FN.V1 HC G49S (antibody, human IgG1, name in Kabat numbering, V domains shown)
VH: EQQLVESGGGLIQPGGSLRLSCAVSGFSLSSNAMSWVRQAPGKGLEWISIISSSGSTYSASWAKGRFTISKDSSKNTMYLQMNSLRAEDTAVYFCARVGFFVGYGAYDYGIIHRLDLWGQGTLVTVSS
VL: DAQLTQSPSTLSASVGDRVTITCQSSKSIYNNNWLSWYQQKPGKPPKLLIYDASDLASGVPSRFSGSGSGTEFTLTISSLQPDDFATYYCAGGYSGDSDYAFGGGTKVEIK
notes: as for B13
Kd: 5.6 nM

B19: h9E3.FN.V1 HC I48V (antibody, human IgG1, name in Kabat numbering, V domains shown)
VH: EQQLVESGGGLIQPGGSLRLSCAVSGFSLSSNAMSWVRQAPGKGLEWVGIISSSGSTYSASWAKGRFTISKDSSKNTMYLQMNSLRAEDTAVYFCARVGFFVGYGAYDYGIIHRLDLWGQGTLVTVSS
VL: DAQLTQSPSTLSASVGDRVTITCQSSKSIYNNNWLSWYQQKPGKPPKLLIYDASDLASGVPSRFSGSGSGTEFTLTISSLQPDDFATYYCAGGYSGDSDYAFGGGTKVEIK
notes: as for B13
Kd: 10.2 nM
